Reference: US20190225703A1 (INNATE PHARMA, published 2019)
Changes are numbered by the printed parent chain.

Experiments:
[1] = molecular target: T1, human CD73 (ecto-5'-nucleotidase) expressed at the cell surface (human, UniProt P21589 27-549); test: flow cytometry titration on MDA-MB-231 cells, endogenous CD73
T1 construct: Used for huCD73-expressing recombinant cell lines, MDA-MB-231 cells (endogenous CD73), HEK-293T cells with wild type CD73, and primary T and B cells; also called huCD73; wild type CD73
T1 sequence: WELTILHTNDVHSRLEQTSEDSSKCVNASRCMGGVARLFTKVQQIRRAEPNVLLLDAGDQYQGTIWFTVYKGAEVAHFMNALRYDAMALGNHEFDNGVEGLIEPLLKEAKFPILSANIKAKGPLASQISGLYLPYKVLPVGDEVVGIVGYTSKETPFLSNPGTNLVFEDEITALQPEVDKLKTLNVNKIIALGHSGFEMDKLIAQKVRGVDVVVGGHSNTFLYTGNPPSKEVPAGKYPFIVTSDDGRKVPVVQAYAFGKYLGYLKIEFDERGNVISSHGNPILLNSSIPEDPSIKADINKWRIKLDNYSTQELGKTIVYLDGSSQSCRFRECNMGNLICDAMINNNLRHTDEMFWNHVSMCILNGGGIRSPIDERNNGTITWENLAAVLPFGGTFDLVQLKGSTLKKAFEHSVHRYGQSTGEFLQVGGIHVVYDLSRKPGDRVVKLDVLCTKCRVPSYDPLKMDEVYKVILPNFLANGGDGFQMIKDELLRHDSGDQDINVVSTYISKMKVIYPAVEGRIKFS
Description: (§1) 10⁵ cells resuspended in PBS/0.2% BSA/0.02% NaN3 (named “staining buffer”) are distributed into round bottom 96W-microplates. Dose-range of anti-CD73 antibodies was added to the plates and cells are incubated for 45 min at 4° C. Cells were washed three times in staining buffer by spinning plates at 400 g for 3 min at 4° C. PE-coupled goat anti-mouse or goat anti-human IgG Fc fragment secondary antibodies (Beckman Coulter) diluted in staining buffer were added to the cells and plates are incubated for 30 additional minutes at 4° C. Cells were washed three times as described above and analyzed on an Accury C6 flow cytometer equipped with an HTFC plate reader.
(§2) Median of fluorescence vs. antibodies concentration was plotted on graphs and EC50 is calculated using GraphPad Prism program.

human CD73 mutant 4 = molecular target: T2, human CD73 mutant 4 (human, UniProt P21589 27-549); test: flow cytometry titration on HEK-293T cells transfected with CD73 mutant 4
T2 construct: Transfected in HEK-293T cells
T2 chain: T1 sequence with K119A, K121A, S126H, S129A, Y135S, E177A, K180A
Description: (§3) Anti-CD73 antibodies are tested for their binding to each mutant by flow cytometry. A first experiment is performed to determine antibodies that lose their binding to one or several mutants at one concentration. To confirm a loss of binding, titration of antibodies is done on antibodies for which binding seemed to be affected by the CD73 mutations (1-0.1-0.01-0.001 μg/ml).

[2] = molecular target: T3, cynomolgus CD73 expressed at the cell surface (cynomolgus); test: flow cytometry titration on cynomolgus-CD73-expressing cell line
T3 construct: whole, on cells; Recombinant cell line expressing cynomolgus CD73; also called cynoCD73
Description: as §1, §2

[3] = molecular target: T1, human CD73 (ecto-5'-nucleotidase) …; test: flow cytometry titration on HEK-293T cells transfected with wild type human CD73
Description: as §3

[4] = molecular target: T1, human CD73 (ecto-5'-nucleotidase) …; test: flow cytometry titration on human-CD73-expressing cell line
Description: as §1, §2

human CD73 mutant 2 = molecular target: T4, human CD73 mutant 2 (human, UniProt P21589 27-549); test: flow cytometry titration on HEK-293T cells transfected with CD73 mutant 2
T4 construct: Transfected in HEK-293T cells; The cell prints A1071, read as A107I
T4 chain: T1 sequence with Q44S, R47A, A48E, A81I, R83G
Description: as §3

B1: antibody 7H10 (antibody, human IgG1, V domains shown)
VH: DVQLQESGPGLVKPSQSLSLTCTVTGYSITSDYAWNWIRQFPGNKLEWMGYIIYSGSTSYNPSLNSRISITRDTSKNQFFLQLNSVTTEDTATYYCAREAYLYFDYWGQGTTLTVSS
VL: DIQMTQTTSSLSASLGDRVTISCRASQDINNYLNWYQQKPDGTVKLLIYYTSRLHSGVPSRFSGSGSGTDYSLTISNLEREDVATYFCQQGNTLPWTFGGGTKLEIK
In the case of B1, the EC50 [1] is reported as 0.054 µg/mL, the “fold lower EC50 than AD2” value [1] is reported as ~8 fold and the “EC50 (read off the curve)” value (human CD73 mutant 4) is reported as ~0.2 µg/mL. For the same binder, the EC50 [2] was 0.335 µg/mL, the “EC50 (read off the curve)” value [3] was ~0.2 µg/mL and the EC50 [4] was 0.187 µg/mL. B1: no binding (tested: 10 µg/ml) (human CD73 mutant 2).
